{
  "source": "patent US20190375786A1",
  "about": "“STABLE PEPTIDES AND METHODS OF USE THEREOF” (Fred Hutchinson Cancer Research Center, priority 2016, published 2019)",
  "key": {"[1]": {"experiment": "Circular dichroism in neutral, SDS and acidic buffers", "type": "physicochemical", "protocol": "CD spectra were measured with a Jasco J-720W spectropolarimeter using a 1.0 mm path length cell. Lyophilized peptide samples were resuspended in ultra pure water. CD runs were carried out by diluting peptides in 20 mM phosphate buffer saline (pH 7.4), 20 mM phosphate buffer saline (pH 7.4) supplemented with 1% sodium dodecyl sulfate (SDS), or phosphate buffer saline at pH 4. Peptides were diluted to 15-25 μM in concentration. Data are shown in terms of total molar ellipticity [θ]; (deg cm^2 dmol^−1)."}, "[2]": {"experiment": "Combined resistance grouping of hitchin peptides (FIG. 27, from Table 2 data)", "type": "physicochemical", "conditions": "FIG. 27 grouping of hitchin peptides", "protocol": "As shown by the data in TABLE 2, the tested peptides of the present disclosure show a range of resistance to proteases, reduction, and high temperature. The peptides were classified as high, medium, or low for each condition. […] For example, after a peptide is treated at 100° C., if the HPLC peak of the peptide is mostly absent as compared to HPLC peak of the peptide not treated at 100° C., then the peptide is classified as low or having low resistance to 100° C. After a peptide is treated with reducing conditions, if there is no or very minimal HPLC peak that overlaps with the HPLC peak of the peptide not treated with reducing conditions, then the peptide is classified as low or having low resistance to reducing conditions.\nThe peptides with the highest resistance data were further analyzed. […] The six peptides that were further tested were peptides comprising the sequences of SEQ ID NO: 27, SEQ ID NO: 24, SEQ ID NO: 6, SEQ ID NO: 10, SEQ ID NO: 12, and SEQ ID NO: 57, which were all hitchins. […] FIG. 27C is a sequence analysis of SEQ ID NO: 27, SEQ ID NO: 24, SEQ ID NO: 6, SEQ ID NO: 10, SEQ ID NO: 12, and SEQ ID NO: 57 from FIG. 27B. FIG. 27C identifies which amino acids are present at each position in SEQ ID NO: 27, SEQ ID NO: 24, SEQ ID NO: 6, SEQ ID NO: 10, SEQ ID NO: 12, and SEQ ID NO: 57. For example, at position one, all peptide sequences comprise a G amino acid residue; at position two, all peptide sequences comprise an S amino acid residue; at position three, all peptide sequences comprise either G, Q, or V amino acid, or null; and at position four, all peptide sequences comprise V, R, or K amino acid, or null. […] SEQ ID NO: 167 and SEQ ID NO: 168 describe sequences of peptides that are particularly resistant to reduction, pepsin, 75° C., and 100° C., which would typically degrade peptides. […] Additionally, SEQ ID NO: 169 describes sequences of peptides that are also particularly resistant to trypsin."}, "[3]": {"target": "T1, trypsin (Sus scrofa, UniProt P00761)", "T1 sequence (P00761 9-231)": "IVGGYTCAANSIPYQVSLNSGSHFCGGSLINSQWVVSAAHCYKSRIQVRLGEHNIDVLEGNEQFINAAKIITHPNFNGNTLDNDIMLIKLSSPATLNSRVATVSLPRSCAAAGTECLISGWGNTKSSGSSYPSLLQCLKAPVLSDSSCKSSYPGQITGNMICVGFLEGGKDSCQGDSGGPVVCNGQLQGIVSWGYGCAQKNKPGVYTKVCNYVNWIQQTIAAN", "experiment": "SDPR surface display protease resistance, anti-6xHis staining, trypsin", "type": "cell-based", "conditions": "HEK-293 cells, up to 40 μg/ml trypsin for 20 minutes", "protocol": "(§1) Soluble peptides were exposed to 500 U/mL porcine trypsin and analyzed by HPLC. Protease resistance was also assessed by using SDPR-displaying peptides. The SDPR vector is similar to the a surface display GFP FasL(SDGF) vector, but contains a C-terminal 6×His tag (SEQ ID NO: 180) and all basic or aromatic amino acid residues on the stalk removed. Protease resistance is then tested by incubation of cells displaying peptides with trypsin or chymotrypsin, followed by incubation in 10 mM DTT, and staining with an anti-6×His fluorophore-labeled antibody (“6×His” disclosed as SEQ ID NO: 180). If peptides are uncleaved, they retain the His tag and are stained with by the antibody. A control protease-sensitive knottin peptide (SK) was used as a positive control. Cells displaying peptides were treated with up to 40 μg/ml trypsin or chymotrypsin.\n(§2) To determine the impact of protease treatment or reducing condition on the function of the peptides, i.e., binding activity, various binding or functional assays can be performed. […] After treatment with the protease and reducing agent, any linearized peptide product or degradation product resulting from reduction and/or proteolysis by treatment with a protease can be detected or analyzed by staining against the 6×His tag (SEQ ID NO: 180). […]"}, "[4]": {"experiment": "Resistance to reduction by reduced glutathione (GSH), HPLC", "type": "physicochemical", "conditions": "10 mM reduced glutathione (GSH); HPLC vs non-reduced peptide", "protocol": "This example describes stability of designed or engineered peptides under reducing conditions. Peptides that are designed or engineered to interact with one or more target proteins in the cell, such as proteins in the nucleus, are exposed to reducing conditions in the cytosolic compartment of cells. Thus, it is advantageous for peptides of this disclosure to display stability in reducing conditions. Stability of peptides of this disclosure was tested in 10 mM DTT and 10 mM GSH. GSH is a more physiologically relevant reducing agent for testing peptide stability in intracellular conditions. An example of a peptide-target protein interaction is a peptide binding to a TEAD protein."}, "[5]": {"test_system": "chymotrypsin", "experiment": "SDPR surface display protease resistance, anti-6xHis staining, chymotrypsin", "type": "cell-based", "conditions": "HEK-293 cells, up to 40 μg/ml chymotrypsin for 20 minutes", "protocol": "as §1, §2"}, "[6]": {"target": "T2, pepsin (Sus scrofa, UniProt P00791)", "T2 sequence (P00791 60-385)": "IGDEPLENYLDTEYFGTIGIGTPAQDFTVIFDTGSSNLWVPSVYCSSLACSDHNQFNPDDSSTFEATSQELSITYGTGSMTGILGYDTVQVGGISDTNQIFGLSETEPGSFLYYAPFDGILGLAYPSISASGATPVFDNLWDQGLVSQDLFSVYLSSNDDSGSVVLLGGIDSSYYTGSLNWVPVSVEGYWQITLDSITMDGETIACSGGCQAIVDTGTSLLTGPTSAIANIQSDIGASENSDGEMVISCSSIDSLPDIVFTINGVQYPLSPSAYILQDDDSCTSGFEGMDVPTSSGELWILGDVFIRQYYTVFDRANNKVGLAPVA", "experiment": "Pepsin digestion resistance in simulated gastric fluid, RP-HPLC", "type": "in vitro ADME, porcine", "parameters": "purchased Sigma Aldrich P7012", "conditions": "HPLC", "how_it_was_run": "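Digestion resistance read by reversed-phase HPLC (C-18, 0.1% TFA, 5–45% acetonitrile over 10 min; 214/280 nm) after 12.5 μg peptide spent 30 min at 37.5 °C in pH 1.05 simulated gastric fluid, with or without 500 U/ml pepsin. Some samples quenched with Tris base and DTT.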"}, "[7]": {"target": "T2, pepsin", "experiment": "Stability in SPTD (simulated gastric fluid, pepsin, Tris and DTT), RP-HPLC", "type": "in vitro ADME", "conditions": "SGF pH 1.05 with 500 U/ml pepsin, 100 mM Tris, 10 mM DTT", "protocol": "(§3) Peptides were first suspended in 500 ul of ddH2O to a stock concentration of 2 mg/ml. Reactions were prepared by adding 12.5 ug of peptide from the stock solution to a 10 mM solution of DTT in PBS and allowed to incubate at room temperature for 30 minutes. Other reactions were prepared with 12.5 μg peptide with or without 500 U/ml pepsin in simulated gastric fluid (SGF; pH 1.05; […] sodium chloride in 0.7% (v/v) hydrochloric acid) and were incubated for 30 minutes at 37.5° C. Some reactions were quenched with a final concentration of 100 mM Tris base and 10 mM dithiothreitol (DTT). Some reactions were performed in all of the above components, including simulated gastric fluid, pepsin, Tris, and DTT (referred to as SPTD). Reversed phase HPLC (RP-HPLC) was run on samples using an Agilent 1260 HPLC equipped with a C-18 Poroshell 120B column. Sample were analyzed by a gradient method with a mobile phase of Solvent A (water with 0.1% TFA) and Solvent B (acetonitrile with 0.1% TFA). Solvent B was ramped up from 5%-45% of the mobile phase over a period of 10 minutes. Peptides were detected at an absorbance of 214 nm and 280 nm."}, "[8]": {"experiment": "Resistance to reduction by DTT, RP-HPLC", "type": "physicochemical", "conditions": "10 mM DTT; HPLC vs non-reduced peptide", "how_it_was_run": "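Peptide (12.5 μg from a 2 mg/ml stock, or 0.015 mM final in PBS) was held 30 min at room temperature with or without 10 mM DTT. Reduced and non-reduced forms were compared by C-18 RP-HPLC using a 5–45% acetonitrile/0.1% TFA gradient over 10 min, with detection at 214 and 280 nm.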"}, "[9]": {"target": "T1, trypsin", "experiment": "Trypsin digestion resistance of soluble peptide, RP-HPLC", "type": "in vitro ADME, porcine", "parameters": "purchased Sigma Aldrich 6567", "conditions": "50 U trypsin (500 U/ml), 30 min at room temperature, with or without 10 mM DTT; HPLC", "how_it_was_run": "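Read-out was RP-HPLC (C-18, water/acetonitrile with 0.1% TFA, 5-45% over 10 min) of peptide left after trypsin treatment. Digest: 12.5 μg peptide, 500 U/ml porcine trypsin, PBS, 37.5° C for 30 min, stopped by soybean trypsin inhibitor; samples then reduced (10 mM DTT) or left non-reduced.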"}, "[10]": {"experiment": "Stability in simulated gastric fluid (SGF, pH 1.05), RP-HPLC", "type": "physicochemical", "conditions": "HPLC vs non-reduced peptide", "protocol": "as §3\nThis example illustrates peptide stability in biological conditions including in the presence of reducing agents, proteases, oxidative conditions, acidic conditions, and simulated gastric fluids. […] Various peptides were suspended in 500 μl of ddH2O at a stock concentration of 2 mg/ml. This was then diluted in accord with the reaction conditions to prevent adverse buffering effects. Reactions were prepared with 12.5 μg peptide dissolved in solution and, in some samples, additionally suspended in a 10 mM solution of DTT, simulated gastric fluid (pH 1.05; […] sodium chloride in 0.7% (v/v) hydrochloric acid), 500 U pepsin (5000 U/ml pepsin), 50 U trypsin (500 U/ml trypsin) with 1 mg/ml inhibitor in PBS, or a combination of any of these conditions. All protease reactions were incubated for 30 min at room temperature and then quenched. Pepsin reactions were quenched by adding Tris base to a final concentration of 0.075 M. Trypsin reactions were quenched by adding excess soybean trypsin inhibitor. RP-HPLC was then run on samples using an Agilent 1260 HPLC equipped with a C-18 Poroshell 120B column. Sample were analyzed by a gradient method with a mobile phase of Solvent A (water with 0.1% TFA) and Solvent B (acetonitrile with 0.1% TFA). Solvent B was ramped up from 5%-45% of the mobile phase over a period of 10 minutes."}},
  "note": "“Also recorded” adds a separate entry of the source.",
  "data": [
    {"sequence": "GSVFINVKCRGSPECLPKCKEAIGKSAGKCMNGKCKCYP [SEQ ID NO: 37]", "values": [
      {"measurement": "secondary structure by CD in phosphate buffer saline at pH 4", "setting": "[1]; pH 4", "value": "retained its secondary structure"},
      {"measurement": "secondary structure by CD in phosphate buffer saline at pH 7.2", "setting": "[1]; pH 7.2", "value": "retained its secondary structure"},
      {"measurement": "secondary structure by CD in phosphate buffer saline at pH 7.2 with 1% SDS", "setting": "[1]; pH 7.2, 1% sodium dodecyl sulfate", "value": "lost secondary structure"},
      {"measurement": "combined resistance to reduction, pepsin and elevated temperatures such as 75° C. and 100° C.", "setting": "[2]", "value": "not highly resistant"}
    ]},
    {"sequence": "PDEYIERAKECCKKQDIQCCLRIFDESKDPNVMLICLFCW [SEQ ID NO: 126]", "values": [
      {"measurement": "resistance of surface-displayed peptide to cleavage by trypsin", "setting": "[3]", "value": "partially resistant"},
      {"measurement": "resistance to GSH reducing conditions", "setting": "[4]", "value": "resistant"},
      {"measurement": "resistance of surface-displayed peptide to cleavage by chymotrypsin", "setting": "[5]", "value": "partially resistant"}
    ]},
    {"sequence": "GSGVPINVRCRGSRDCLDPCRRAGMRFGRCINSRCHCTP [SEQ ID NO: 31]", "values": [
      {"measurement": "resistance to pepsin, Example 7 conditions (in words)", "setting": "[6]; 500 U pepsin (5000 U/ml) in SGF, 30 min at room temperature, with or without DTT", "value": "remained intact; also recorded: resistant"},
      {"measurement": "resistance to pepsin digestion (in words)", "setting": "[6]; 500 U/ml pepsin (50 U per reaction) in SGF, 30 minutes at 37.5° C.", "value": "highly resistant"},
      {"measurement": "resistance in SPTD (SGF, pepsin, Tris, DTT) (in words)", "setting": "[7]", "value": "highly resistant"},
      {"measurement": "resistance to reduction by DTT (in words)", "setting": "[8]", "value": "highly resistant; also recorded: remained intact; also recorded: intact and resistant"},
      {"measurement": "resistance to trypsin, Example 7 conditions (in words)", "setting": "[9]", "value": "remained intact; also recorded: resistant"},
      {"measurement": "stability in simulated gastric fluid / low pH (in words)", "setting": "[10]", "value": "highly resistant; also recorded: remained intact; also recorded: intact and resistant"}
    ]}
  ]
}
